Assay results from patent publication US12383631 (BRIGHT PEAK THERAPEUTICS, dated 2025).

T1: human IL-18BP-His (human, UniProt O95998 31-194, limits assumed)
T1 construct: also called His-tagged human IL-18BP; not shown: His tag
T1 sequence (looked up): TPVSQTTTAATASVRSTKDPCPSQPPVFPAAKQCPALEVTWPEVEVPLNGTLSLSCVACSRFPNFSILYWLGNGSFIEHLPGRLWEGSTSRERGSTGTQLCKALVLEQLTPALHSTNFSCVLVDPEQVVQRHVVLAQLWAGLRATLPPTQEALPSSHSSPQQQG

T2: IL-18 receptor (IL-18Rα/IL-18Rβ) on cells (HEK-Blue IL18R reporter cells, NK-92, KG-1) (human, UniProt Q13478 19-541; O95256 20-599)
T2 sequence (looked up) 1: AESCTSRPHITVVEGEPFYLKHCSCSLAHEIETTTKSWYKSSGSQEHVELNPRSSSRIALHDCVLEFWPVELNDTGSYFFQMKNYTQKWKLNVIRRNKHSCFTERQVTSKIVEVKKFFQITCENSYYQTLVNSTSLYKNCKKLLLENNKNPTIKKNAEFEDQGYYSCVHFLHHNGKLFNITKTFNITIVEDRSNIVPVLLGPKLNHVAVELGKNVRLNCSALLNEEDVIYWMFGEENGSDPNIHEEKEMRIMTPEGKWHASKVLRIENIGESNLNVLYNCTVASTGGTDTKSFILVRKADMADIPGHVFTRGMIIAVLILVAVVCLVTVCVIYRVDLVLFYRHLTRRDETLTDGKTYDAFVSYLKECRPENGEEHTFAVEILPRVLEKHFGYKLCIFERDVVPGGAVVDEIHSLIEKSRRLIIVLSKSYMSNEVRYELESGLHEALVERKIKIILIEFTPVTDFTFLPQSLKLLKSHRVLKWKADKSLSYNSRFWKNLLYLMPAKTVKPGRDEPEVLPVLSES
T2 sequence (looked up) 2: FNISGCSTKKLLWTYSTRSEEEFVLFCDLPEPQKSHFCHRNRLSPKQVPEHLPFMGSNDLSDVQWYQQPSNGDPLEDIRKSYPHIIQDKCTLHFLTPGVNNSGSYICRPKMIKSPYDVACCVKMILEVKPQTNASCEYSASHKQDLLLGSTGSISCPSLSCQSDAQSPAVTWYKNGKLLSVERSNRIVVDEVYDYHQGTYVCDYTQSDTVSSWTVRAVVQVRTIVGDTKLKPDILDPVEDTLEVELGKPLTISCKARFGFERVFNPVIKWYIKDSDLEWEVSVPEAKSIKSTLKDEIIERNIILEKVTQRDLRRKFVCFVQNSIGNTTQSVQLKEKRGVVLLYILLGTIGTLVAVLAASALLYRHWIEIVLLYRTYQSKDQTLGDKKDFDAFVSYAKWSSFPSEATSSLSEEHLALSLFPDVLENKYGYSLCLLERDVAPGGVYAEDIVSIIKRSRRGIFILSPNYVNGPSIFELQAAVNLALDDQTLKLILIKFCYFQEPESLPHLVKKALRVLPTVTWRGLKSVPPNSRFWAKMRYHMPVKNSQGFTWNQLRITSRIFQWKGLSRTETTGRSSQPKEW


Columns and labels:
human IL-18BP-His = target: T1, human IL-18BP-His; experiment: AlphaLISA of free IL-18BP
Procedure: The plate is incubated further for 1 hr at room temperature. Under subdued light, 12.5 µL of 2× streptavidin (SA) donor beads are pipetted into each well, and the wells are incubated with shaking for an additional 30 min at room temperature. The AlphaLisa signal is then measured on an Enspire plate reader with 680 and 615 nm as excitation and emission wavelengths, respectively. The dissociation constant (K_D) is calculated based on a variable slope, four parameter analysis using GraphPad PRISM software.

[1] = target: T2, IL-18 receptor (IL-18Rα/IL-18Rβ) on …; experiment: cell-based or functional assay
[2] = target: T2, IL-18 receptor (IL-18Rα/IL-18Rβ) on …; experiment: cell-based or functional assay; remark: listed apart in the source

Row | Binder | Kd (human IL-18BP-His) [nM] | EC50, IFNγ stimulation, NK92 cells [1] [nM] | EC50, HEK-Blue IL18R reporter cells [2] [nM]
1 | IL-18 polypeptide C153 (ligand, also called V11I, D37A, C38A, K53A, C76A, C127A) YFGKLESKLSIIRNLNDQVLFIDQGNRPLFEDMTDSAARDNAPRTIFIISMYADSQPRGMAVTISVKCEKISTLSAENKIISFKEMNPPDNIKDTKSDIIFFQRSVPGHDNKMQFESSSYEGYFLAAEKERDLFKLILKKEDELGDRSIMFTVQNED | 4.55 | 0.175 | 0.0141
2 | IL-18 polypeptide C166 (ligand, also called V11I, C38A, S55T, C76A, C127A) YFGKLESKLSIIRNLNDQVLFIDQGNRPLFEDMTDSDARDNAPRTIFIISMYKDTQPRGMAVTISVKCEKISTLSAENKIISFKEMNPPDNIKDTKSDIIFFQRSVPGHDNKMQFESSSYEGYFLAAEKERDLFKLILKKEDELGDRSIMFTVQNED | 0.02 | 0.098 | 0.00473
3 | IL-18 polypeptide C155 (ligand, also called V11I, C38A, D40A, K53A, C76A, C127A) YFGKLESKLSIIRNLNDQVLFIDQGNRPLFEDMTDSDARANAPRTIFIISMYADSQPRGMAVTISVKCEKISTLSAENKIISFKEMNPPDNIKDTKSDIIFFQRSVPGHDNKMQFESSSYEGYFLAAEKERDLFKLILKKEDELGDRSIMFTVQNED | 0.74 | 0.067 | 0.00052
4 | IL-18 polypeptide C167 (ligand, also called V11I, C38A, C76A, S105I, C127A) YFGKLESKLSIIRNLNDQVLFIDQGNRPLFEDMTDSDARDNAPRTIFIISMYKDSQPRGMAVTISVKCEKISTLSAENKIISFKEMNPPDNIKDTKSDIIFFQRIVPGHDNKMQFESSSYEGYFLAAEKERDLFKLILKKEDELGDRSIMFTVQNED | 0.04 | 0.103 | 0.00537
5 | IL-18 polypeptide C157 (ligand, also called V11I, C38A, K53A, C76A, C127A, D132A) YFGKLESKLSIIRNLNDQVLFIDQGNRPLFEDMTDSDARDNAPRTIFIISMYADSQPRGMAVTISVKCEKISTLSAENKIISFKEMNPPDNIKDTKSDIIFFQRSVPGHDNKMQFESSSYEGYFLAAEKERALFKLILKKEDELGDRSIMFTVQNED | 13.7 | 0.056 | 0.00195
6 | IL-18 polypeptide C161 (ligand, also called K8R, V11I, C38A, C76A, Q103E, C127A) YFGKLESRLSIIRNLNDQVLFIDQGNRPLFEDMTDSDARDNAPRTIFIISMYKDSQPRGMAVTISVKCEKISTLSAENKIISFKEMNPPDNIKDTKSDIIFFERSVPGHDNKMQFESSSYEGYFLAAEKERDLFKLILKKEDELGDRSIMFTVQNED | 0.06 | 0.057 | 0.00201
7 | IL-18 polypeptide C156 (ligand, also called V11I, C38A, N41A, K53A, C76A, C127A) YFGKLESKLSIIRNLNDQVLFIDQGNRPLFEDMTDSDARDAAPRTIFIISMYADSQPRGMAVTISVKCEKISTLSAENKIISFKEMNPPDNIKDTKSDIIFFQRSVPGHDNKMQFESSSYEGYFLAAEKERDLFKLILKKEDELGDRSIMFTVQNED | 18.5 | 0.558 | 0.0117
8 | IL-18 polypeptide C165 (ligand, also called V11I, C38A, S55R, C76A, C127A) YFGKLESKLSIIRNLNDQVLFIDQGNRPLFEDMTDSDARDNAPRTIFIISMYKDRQPRGMAVTISVKCEKISTLSAENKIISFKEMNPPDNIKDTKSDIIFFQRSVPGHDNKMQFESSSYEGYFLAAEKERDLFKLILKKEDELGDRSIMFTVQNED | 0.15 | 0.176 | 0.00191
9 | IL-18 polypeptide C159 (ligand, also called V11I, C38A, K53A, C76A, H109A, C127A) YFGKLESKLSIIRNLNDQVLFIDQGNRPLFEDMTDSDARDNAPRTIFIISMYADSQPRGMAVTISVKCEKISTLSAENKIISFKEMNPPDNIKDTKSDIIFFQRSVPGADNKMQFESSSYEGYFLAAEKERDLFKLILKKEDELGDRSIMFTVQNED | 0.55 | 0.123 | 0.0195
10 | IL-18 polypeptide C154 (ligand, also called V11I, E31A, D37A, C38A, K53A, C76A, C127A) YFGKLESKLSIIRNLNDQVLFIDQGNRPLFADMTDSAARDNAPRTIFIISMYADSQPRGMAVTISVKCEKISTLSAENKIISFKEMNPPDNIKDTKSDIIFFQRSVPGHDNKMQFESSSYEGYFLAAEKERDLFKLILKKEDELGDRSIMFTVQNED | 2.12 | 0.062 | 0.0119
11 | IL-18 polypeptide C168 (ligand, also called V11I, C38A, C76A, S105K, C127A) YFGKLESKLSIIRNLNDQVLFIDQGNRPLFEDMTDSDARDNAPRTIFIISMYKDSQPRGMAVTISVKCEKISTLSAENKIISFKEMNPPDNIKDTKSDIIFFQRKVPGHDNKMQFESSSYEGYFLAAEKERDLFKLILKKEDELGDRSIMFTVQNED | 0.05 | 0.098 | 0.00773
12 | IL-18 polypeptide C158 (ligand, also called V11I, C38A, K53A, C76A, G108A, C127A) YFGKLESKLSIIRNLNDQVLFIDQGNRPLFEDMTDSDARDNAPRTIFIISMYADSQPRGMAVTISVKCEKISTLSAENKIISFKEMNPPDNIKDTKSDIIFFQRSVPAHDNKMQFESSSYEGYFLAAEKERDLFKLILKKEDELGDRSIMFTVQNED | 1.24 | 0.073 | 0.0156
13 | IL-18 polypeptide of SEQ ID NO: 50 (E06K, K53A, T63A) (ligand) YFGKLKSKLSVIRNLNDQVLFIDQGNRPLFEDMTDSDCRDNAPRTIFIISMYADSQPRGMAVAISVKCEKISTLSCENKIISFKEMNPPDNIKDTKSDIIFFQRSVPGHDNKMQFESSSYEGYFLACEKERDLFKLILKKEDELGDRSIMFTVQNED | 340 | 0.0268 | 0.00177
14 | IL-18 polypeptide C163 (ligand, also called V11I, C38A, C76A, Q103K, C127A) YFGKLESKLSIIRNLNDQVLFIDQGNRPLFEDMTDSDARDNAPRTIFIISMYKDSQPRGMAVTISVKCEKISTLSAENKIISFKEMNPPDNIKDTKSDIIFFKRSVPGHDNKMQFESSSYEGYFLAAEKERDLFKLILKKEDELGDRSIMFTVQNED | 0.05 | 0.093 | 0.0015
15 | IL-18 polypeptide C160 (ligand, also called V11I, C38A, K53A, C76A, D110A, C127A) YFGKLESKLSIIRNLNDQVLFIDQGNRPLFEDMTDSDARDNAPRTIFIISMYADSQPRGMAVTISVKCEKISTLSAENKIISFKEMNPPDNIKDTKSDIIFFQRSVPGHANKMQFESSSYEGYFLAAEKERDLFKLILKKEDELGDRSIMFTVQNED | 0.71 | 0.028 | 0.00202
16 | IL-18 polypeptide of SEQ ID NO: 42 (E06K, K53A, S55A, T63A) (ligand) YFGKLKSKLSVIRNLNDQVLFIDQGNRPLFEDMTDSDCRDNAPRTIFIISMYADAQPRGMAVAISVKCEKISTLSCENKIISFKEMNPPDNIKDTKSDIIFFQRSVPGHDNKMQFESSSYEGYFLACEKERDLFKLILKKEDELGDRSIMFTVQNED | 822 | 0.144 | 0.00079
17 | IL-18 polypeptide C162 (ligand, also called K8E, V11I, C38A, C76A, Q103R, C127A) YFGKLESELSIIRNLNDQVLFIDQGNRPLFEDMTDSDARDNAPRTIFIISMYKDSQPRGMAVTISVKCEKISTLSAENKIISFKEMNPPDNIKDTKSDIIFFRRSVPGHDNKMQFESSSYEGYFLAAEKERDLFKLILKKEDELGDRSIMFTVQNED | 0.85 | 0.061 | 0.0023
18 | IL-18 polypeptide C164 (ligand, also called V11I, C38A, S55H, C76A, C127A) YFGKLESKLSIIRNLNDQVLFIDQGNRPLFEDMTDSDARDNAPRTIFIISMYKDHQPRGMAVTISVKCEKISTLSAENKIISFKEMNPPDNIKDTKSDIIFFQRSVPGHDNKMQFESSSYEGYFLAAEKERDLFKLILKKEDELGDRSIMFTVQNED | 0.08 | 0.414 | 0.00314
